In publication PMC5074588:

Biological target: tubulins (tubulin dimers; paclitaxel-stabilized microtubules)
Experiment: co-sedimentation; different concentrations of the protein added to paclitaxel-stabilized microtubules (prepolymerized from 8 uM tubulins in Fig 5A, 5 uM in S7 Fig) in PEMT buffer (1 mM MgCl2, 1 mM EGTA, 100 mM PIPES, 20 uM taxol, pH 6.9); 25 C 30 min; 100,000g 30 min; SDS-PAGE, Coomassie

tubulins (tubulin dimers; paclitaxel-stabilized microtubules), sequence (P02550 whole entry, chain 1 of 2): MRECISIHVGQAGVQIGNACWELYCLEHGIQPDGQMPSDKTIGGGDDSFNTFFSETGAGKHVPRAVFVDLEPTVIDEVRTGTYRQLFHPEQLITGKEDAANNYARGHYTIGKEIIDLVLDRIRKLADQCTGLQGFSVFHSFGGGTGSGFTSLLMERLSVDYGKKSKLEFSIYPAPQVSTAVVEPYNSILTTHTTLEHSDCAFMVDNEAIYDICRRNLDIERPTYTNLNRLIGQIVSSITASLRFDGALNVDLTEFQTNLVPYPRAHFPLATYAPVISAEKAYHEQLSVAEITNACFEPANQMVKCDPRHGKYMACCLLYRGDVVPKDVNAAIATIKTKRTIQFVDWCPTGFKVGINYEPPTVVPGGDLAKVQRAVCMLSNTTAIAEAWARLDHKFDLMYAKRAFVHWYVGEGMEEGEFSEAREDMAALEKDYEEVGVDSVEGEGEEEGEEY
tubulins (tubulin dimers; paclitaxel-stabilized microtubules), sequence (P02554 whole entry, chain 2 of 2, further chain): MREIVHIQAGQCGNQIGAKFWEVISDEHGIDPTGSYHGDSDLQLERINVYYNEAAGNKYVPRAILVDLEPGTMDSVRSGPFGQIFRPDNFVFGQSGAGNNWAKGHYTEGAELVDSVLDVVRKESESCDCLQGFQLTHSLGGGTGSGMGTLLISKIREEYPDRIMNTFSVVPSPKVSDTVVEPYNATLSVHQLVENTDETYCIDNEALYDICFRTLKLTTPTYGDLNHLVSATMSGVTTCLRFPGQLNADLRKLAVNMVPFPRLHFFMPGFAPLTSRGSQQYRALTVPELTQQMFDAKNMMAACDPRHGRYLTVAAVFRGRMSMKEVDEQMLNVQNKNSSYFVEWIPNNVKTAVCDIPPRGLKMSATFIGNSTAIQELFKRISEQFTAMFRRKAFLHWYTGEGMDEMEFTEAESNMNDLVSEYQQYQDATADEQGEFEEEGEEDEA

For “His-AUG8 (AUGMIN subunit 8) (natural protein)”, which stoichiometry N (M His-AUG8 per mole of tubulin dimers) is on record?
Its stoichiometry N (M His-AUG8 per mole of tubulin dimers) is 0.22.
